First the molecules themselves.
B1: EEHEE_rd4_0647 (parent)
chain: MQVTWGNVTVTFSNPEEAKKYAEKVARKLGGQVELHNGQFRIK

The data set covers variants of B1. Description: folding stability dG (cDNA display proteolysis); higher = more stable. To be noted: PBS, room temperature.
Turning to MQVTWGNVTVTFSNPEEAKKYAEKVVRKLGGQVELHNGQFRIK [A26V], the “folding stability dG” value is 1.66 kcal/mol. In the case of MQVEWGNVTVTFSNPEEAKKYAEKVARKLGGQVELHNGQFRIK [T4E] it was 1.66 kcal/mol. In the case of MQVTWGNVTVTFSNPEEAKKYAEKVARKLGGQVELHNGQFRQK [I42Q] it was 0.449 kcal/mol. In the case of MQVTWGNVDVTFSNPEEAKKYAEKVARKLGGQVELHNGQFRIK [T9D] it was 0.892 kcal/mol. Consider MQVTWGNVCVTFSNPEEAKKYAEKVARKLGGQVELHNGQFRIK [T9C], for which the “folding stability dG” value was 3.2 kcal/mol. In the case of MQVTWGNVHVTFSNPEEAKKYAEKVARKLGGQVELHNGQFRIK [T9H] it was 1.77 kcal/mol; in that of MQVTWGNVTVTFSNPEEAKKYAQKVARKLGGQVELHNGQFRIK [E23Q], 2.62 kcal/mol; in that of MQVTWGNVTVTFSNEEEAKKYAEKVARKLGGQVELHNGQFRIK [P15E], 2.54 kcal/mol. In the case of MQVTWGNVTVTFSNPECAKKYAEKVARKLGGQVELHNGQFRIK [E17C] it was 3.18 kcal/mol; in that of MQVTWGNVTVTFSNPEYAKKYAEKVARKLGGQVELHNGQFRIK [E17Y], 2.58 kcal/mol. For MQVTWGNVTVTQSNPEEAKKYAEKVARKLGGQVELHNGQFRIK [F12Q] the value was 0.017 kcal/mol; for MQVTWGNVTVTWSNPEEAKKYAEKVARKLGGQVELHNGQFRIK [F12W], 1.18 kcal/mol. MQVTWGNVTVTFGNPEEAKKYAEKVARKLGGQVELHNGQFRIK [S13G]: the “folding stability dG” value amounted to 2.5 kcal/mol. In the case of MQVTWGNVTVTFKNPEEAKKYAEKVARKLGGQVELHNGQFRIK [S13K] it was 2.86 kcal/mol; in that of MQVTWGNVTVTFANPEEAKKYAEKVARKLGGQVELHNGQFRIK [S13A], 2.8 kcal/mol; in that of MQVTWGNVTVTFNNPEEAKKYAEKVARKLGGQVELHNGQFRIK [S13N], 2.79 kcal/mol. Consider MQVTWGNVTVTFSNPEEAKKYFEKVARKLGGQVELHNGQFRIK [A22F], for which the “folding stability dG” value was 1.07 kcal/mol. In the case of MQVTWGNVTVTFSWPEEAKKYAEKVARKLGGQVELHNGQFRIK [N14W] it was 1.76 kcal/mol; in that of MQVTWGNVTVTFSRPEEAKKYAEKVARKLGGQVELHNGQFRIK [N14R], 2.47 kcal/mol; in that of MQVTWGHVTVTFSNPEEAKKYAEKVARKLGGQVELHNGQFRIK [N7H], 2.64 kcal/mol. In the case of MQVTWCNVTVTFSNPEEAKKYAEKVARKLGGQVELHNGQFRIK [G6C] it was 3.2 kcal/mol; in that of MQVTWTNVTVTFSNPEEAKKYAEKVARKLGGQVELHNGQFRIK [G6T], 1.3 kcal/mol; in that of MQVTWGNVTVTFSNPEEAKKYAEKVARKLGGQVELHSGQFRIK [N37S], 1.93 kcal/mol. In the case of MQVTWGNVTVTFSNPEEAKKYAEKVARKLGGQVELHNGQFEIK [R41E] it was 2.25 kcal/mol.

For MQVTWGNVTVTFSNPEEAKKYAEKVARKLGGQVELHNGQFNIK [R41N], the “folding stability dG” value was determined as 2.37 kcal/mol. For MQVTWGNVTVTFSNPEEAKKYAEKVARKLGGQVELHNGQFRIY [K43Y] the value was 2.88 kcal/mol; for MQVTWGNVTVTFSNPEEAKKYAEKVARKLGGQVELHNGQFRIF [K43F], 2.96 kcal/mol; for MQDTWGNVTVTFSNPEEAKKYAEKVARKLGGQVELHNGQFRIK [V3D], 0.045 kcal/mol. For MQVTWGNVTVTFSNPEEAKKYAEKLARKLGGQVELHNGQFRIK [V25L] the value was 2.95 kcal/mol. As for MQVTWGNVTVTFSNPEEAKKYAEKPARKLGGQVELHNGQFRIK [V25P], the “folding stability dG” value is -0.34 kcal/mol. As to MQVTWGNVTVTFSNPEEAKKYAEKVARKLGGQSELHNGQFRIK [V33S], the “folding stability dG” value is 1.11 kcal/mol.

For the variant MQVTWGNVTVTFSNPEEAKKYAEKVARKLGGQIELHNGQFRIK [V33I], the “folding stability dG” value amounted to 2.62 kcal/mol. As for MQVTWGNVTVTFSNPEEAKKYAEKVARKLGGQLELHNGQFRIK [V33L], the “folding stability dG” value came to 2.16 kcal/mol.

Consider MQVTWGNVTVTFSNPEEAKKYAEKVARKLGGQYELHNGQFRIK [V33Y], for which the “folding stability dG” value turned out to be 2.07 kcal/mol. In the case of MQVTWGNVTVTFSNPEEAKKYAEYVARKLGGQVELHNGQFRIK [K24Y] it was 3.25 kcal/mol; in that of MQVTWGNVTVTFSNPEEAKKYAEKVARKLGGQVELHNGQKRIK [F40K], 0.481 kcal/mol; in that of MQVTWGNVTVTFSNPEEAKKYAEKVARKLGGQVEYHNGQFRIK [L35Y], 3.14 kcal/mol. With MQVTWGNVTWTFSNPEEAKKYAEKVARKLGGQVELHNGQFRIK [V10W], the “folding stability dG” value came out at 2.84 kcal/mol. For MQVTWGNVTVTFSNPEENKKYAEKVARKLGGQVELHNGQFRIK [A18N] the value was 0.024 kcal/mol. For MQVTWGNVTVTFSNPEEGKKYAEKVARKLGGQVELHNGQFRIK [A18G] the value was 1.05 kcal/mol; for MQVTWGNVTVTFSNPEEKKKYAEKVARKLGGQVELHNGQFRIK [A18K], 0.212 kcal/mol. For MQVTWGNVTVHFSNPEEAKKYAEKVARKLGGQVELHNGQFRIK [T11H] the value was 2.72 kcal/mol; for MQVTWGNVTVYFSNPEEAKKYAEKVARKLGGQVELHNGQFRIK [T11Y], 3.02 kcal/mol. On to MQVTWGNTTVTFSNPEEAKKYAEKVARKLGGQVELHNGQFRIK [V8T], for which the “folding stability dG” value amounted to 2.64 kcal/mol. For MQVTWGNVTVTFSNPEEAKKYAEKVARKLGGQVWLHNGQFRIK [E34W] the value was 2.2 kcal/mol; for YQVTWGNVTVTFSNPEEAKKYAEKVARKLGGQVELHNGQFRIK [M1Y], 3.45 kcal/mol; for MQVTWGNVTVTFSNPEEAKKYAEKVARKYGGQVELHNGQFRIK [L29Y], 2.63 kcal/mol. In the case of MQVTEGNVTVTFSNPEEAKKYAEKVARKLGGQVELHNGQFRIK [W5E], the “folding stability dG” value is 0.581 kcal/mol. In the case of MQVTSGNVTVTFSNPEEAKKYAEKVARKLGGQVELHNGQFRIK [W5S], the “folding stability dG” value worked out at 0.968 kcal/mol. As for MQVTWGNVTVTFSNPEEAKKYAEKVARKLGGQVELHNGPFRIK [Q39P], the “folding stability dG” value stood at 0.269 kcal/mol.

With MQVTWGNVTVTFSNPEEAKKYAEKVARKLGGQVELHNGLFRIK [Q39L], the “folding stability dG” value came to 2.1 kcal/mol. For MQVTWGNVTVTFSNPYEAKKYAEKVARKLGGQVELHNGQFRIK [E16Y] the value was 2.77 kcal/mol; for MQVTWGNVTVTFSNPGEAKKYAEKVARKLGGQVELHNGQFRIK [E16G], 2.54 kcal/mol; for MQVTWGNVTVTFSNPQEAKKYAEKVARKLGGQVELHNGQFRIK [E16Q], 2.7 kcal/mol.

On to MQVTWGNVTVTFSNPNEAKKYAEKVARKLGGQVELHNGQFRIK [E16N], for which the “folding stability dG” value turned out to be 2.56 kcal/mol. For MQVTWGNVTVTFSNPEEAKKYAEKVARELGGQVELHNGQFRIK [K28E] the value was 2.72 kcal/mol; for MQVTWGNVTVTFSNPEEAKKYAEKVARPLGGQVELHNGQFRIK [K28P], 0.676 kcal/mol. For MQVTWGNVTVTFSNPEEAKKYAEKVARMLGGQVELHNGQFRIK [K28M] the value was 3.09 kcal/mol. For MQVTWGNVTVTFSNPEEAKKTAEKVARKLGGQVELHNGQFRIK [Y21T], the “folding stability dG” value stood at 0.931 kcal/mol.

The values are drawn from the MegaScale stability set (Tsuboyama et al. 2023).
